The values below come from patent publication US20250084179A1 (Xencor, published 2025).

T1: Cyno TROP2 (Macaca fascicularis, UniProt A0A2K5UE71)
T1 construct: Construct used in the measurement is not described; also called cynomolgus TROP2
T1 sequence (antigen): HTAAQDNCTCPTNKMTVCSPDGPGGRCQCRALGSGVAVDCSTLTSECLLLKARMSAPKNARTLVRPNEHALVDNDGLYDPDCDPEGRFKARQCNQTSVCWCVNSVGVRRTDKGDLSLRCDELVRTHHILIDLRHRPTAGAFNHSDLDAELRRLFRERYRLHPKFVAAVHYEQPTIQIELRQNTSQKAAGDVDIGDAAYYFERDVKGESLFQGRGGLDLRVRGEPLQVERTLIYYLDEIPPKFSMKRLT

T2: TROP2 (UniProt P09758 27-274, limits assumed)
T2 construct: also called tumor-associated calcium signal transducer 2; TACSTD2
T2 sequence (looked up): T1 sequence (antigen) with V36M, E46K, N67S, V204I

B1: 1F11-1A3.315[Trop2]_H1.1_L1 (antibody, V domains shown)
VH: QVQLVQSGAEVKKPGASVKVSCKASGYTLTRYYMHWVRQAPGQGLEWMGIINPGGGSTGYAQKFQGRVTMTRDTSTSTVYMELSSLRSEDTAVYYCARDDVVAADVFDYWGQGTLVTVSS
VL: not shown
B2: 1F11-1A3.315[Trop2]_H1.17_L1 (antibody, V domains shown)
VH: B1 VH with N52E, A103K
VL: not shown
B3: 1F11-1A3.315[Trop2]_H1.4_L1 (antibody, V domains shown)
VH: B1 VH with L29F, V102T
VL: not shown
B4: 1F11-1A3.315[Trop2]_H1.5_L1 (antibody, V domains shown)
VH: B1 VH with L29F, A103K
VL: not shown
B5: 1F11-1A3.315[Trop2]_H1.20_L1 (antibody, V domains shown)
VH: B1 VH with N52E, G59S, V102T
VL: not shown
B6: 1F11-1A3.315[Trop2]_H1.18_L1 (antibody, V domains shown)
VH: B1 VH with N52E, G59T, V102T
VL: not shown
B7: 1F11-1A3.315[Trop2]_H1.2_L1 (antibody, V domains shown)
VH: B1 VH with L29F, N52E
VL: not shown
B8: 1F11-1A3.315[Trop2]_H1.27_L1 (antibody, V domains shown)
VH: B1 VH with N52E, G59D, V102T
VL: not shown
B9: 1F11-1A3.315[Trop2]_H1.23_L1 (antibody, V domains shown)
VH: B1 VH with L29F, M34V
VL: not shown
B10: 1F11-1A3.315[Trop2]_H1.22_L1 (antibody, V domains shown)
VH: B1 VH with N52E, G59S, V102T, A103K
VL: not shown
B11: 1F11-1A3.315[Trop2]_H1.3_L1 (antibody, V domains shown)
VH: B1 VH with L29F, G59T
VL: not shown
B12: 1F11-1A3.315[Trop2]_H1.8_L1 (antibody, V domains shown)
VH: B1 VH with V102T
VL: not shown
B13: 1F11-1A3.315[Trop2]_H1.25_L1 (antibody, V domains shown)
VH: B1 VH with L29F, G59L
VL: not shown
B14: 1F11-1A3.315[Trop2]_H1.15_L1 (antibody, V domains shown)
VH: B1 VH with L29F, V102T, A103K
VL: not shown
B15: 1F11-1A3.315[Trop2]_H1.11_L1 (antibody, V domains shown)
VH: B1 VH with L29F, N52E, V102T
VL: not shown
B16: 1F11-1A3.315[Trop2]_H1.12_L1 (antibody, V domains shown)
VH: B1 VH with L29F, N52E, A103K
VL: not shown
B17: 1F11-1A3.315[Trop2]_H1.14_L1 (antibody, V domains shown)
VH: B1 VH with L29F, G59T, A103K
VL: not shown
B18: 1F11-1A3.315[Trop2]_H1.16_L1 (antibody, V domains shown)
VH: B1 VH with N52E, V102T
VL: not shown
B19: 1F11-1A3.315[Trop2]_H1.21_L1 (antibody, V domains shown)
VH: B1 VH with N52E, G59S, A103K
VL: not shown
B20: 1F11-1A3.315[Trop2]_H1.26_L1 (antibody, V domains shown)
VH: B1 VH with L29F, V102M
VL: not shown
B21: 1F11-1A3.315[Trop2]_H1.6_L1 (antibody, V domains shown)
VH: B1 VH with N52E
VL: not shown
B22: 1F11-1A3.315[Trop2]_H1.7_L1 (antibody, V domains shown)
VH: B1 VH with G59T
VL: not shown
B23: 1F11-1A3.315[Trop2]_H1.9_L1 (antibody, V domains shown)
VH: B1 VH with A103K
VL: not shown
B24: 1F11-1A3.315[Trop2]_H1.24_L1 (antibody, V domains shown)
VH: B1 VH with L29F, G59D
VL: not shown
B25: 1F11-1A3.315[Trop2]_H1.13_L1 (antibody, V domains shown)
VH: B1 VH with L29F, G59T, V102T
VL: not shown

Where a chain is given by its changes, count along the chain named.

As a reminder, the koff is a measure of how fast the partners let go of each other. Broadly, the kon is the rate constant with which the complex forms.

The target in one assay is T1, Cyno TROP2. Briefly: not stated; bivalent format.
Molecule B1 showed a Kd of 2.7 nM, a koff of 0.00073 s⁻¹ and a kon of 270000 M⁻¹ s⁻¹.

The molecule B2 had a Kd of 0.81 nM, a koff of 0.00028 s⁻¹ and a kon of 350000 M⁻¹ s⁻¹.

Consider B3, for which the Kd is 9.4 nM, the koff was 0.0021 s⁻¹ and the kon amounted to 220000 M⁻¹ s⁻¹.

For the molecule B4, the Kd was found to be 4.5 nM, the koff was determined as 0.0014 s⁻¹ and the kon is 320000 M⁻¹ s⁻¹.

With B5, the Kd stood at 1.7 nM, the koff turned out to be 0.00059 s⁻¹ and the kon turned out to be 340000 M⁻¹ s⁻¹.

For B6, the Kd worked out at 0.93 nM, the off-rate constant (koff) is 0.00034 s⁻¹ and the on-rate constant (kon) was found to be 370000 M⁻¹ s⁻¹.

B7 returned a Kd of 2.5 nM, an off-rate (koff) of 0.00067 s⁻¹ and a kon of 270000 M⁻¹ s⁻¹.

With B8, the Kd is 1.2 nM, the off-rate constant (koff) was determined as 0.00047 s⁻¹ and the association rate constant (kon) was found to be 390000 M⁻¹ s⁻¹.

In turn, B9 returned a Kd of 11 nM, a koff of 0.0026 s⁻¹ and a kon of 230000 M⁻¹ s⁻¹.

Consider B10, for which the Kd amounted to 0.7 nM, the koff came to 0.00028 s⁻¹ and the kon stood at 400000 M⁻¹ s⁻¹.

B11 registered a Kd of 8.6 nM, a koff of 0.002 s⁻¹ and a kon of 230000 M⁻¹ s⁻¹.

In turn, B12 registered a Kd of 3.1 nM, a koff of 0.00077 s⁻¹ and a kon of 250000 M⁻¹ s⁻¹.

The molecule B13 yielded a Kd of 14 nM, a dissociation rate constant (koff) of 0.0027 s⁻¹ and a kon of 190000 M⁻¹ s⁻¹.

Turning to B14, the Kd came to 5.1 nM, the koff came to 0.0016 s⁻¹ and the association rate constant (kon) turned out to be 310000 M⁻¹ s⁻¹.

In turn, B15 showed a Kd of 2.6 nM, a koff of 0.00079 s⁻¹ and a kon of 300000 M⁻¹ s⁻¹.

Turning to B16, the Kd is 1.1 nM, the koff was found to be 0.00038 s⁻¹ and the kon worked out at 360000 M⁻¹ s⁻¹.

The molecule B17 came in with a Kd of 3.7 nM, an off-rate (koff) of 0.0013 s⁻¹ and a kon of 360000 M⁻¹ s⁻¹.

The molecule B18 gave a Kd of 1.5 nM, a koff of 0.00047 s⁻¹ and a kon of 310000 M⁻¹ s⁻¹.

B19 yielded a Kd of 0.81 nM, an off-rate constant (koff) of 0.00031 s⁻¹ and an on-rate constant (kon) of 390000 M⁻¹ s⁻¹.

Turning to B20, the Kd came to 6.2 nM, the koff was 0.0015 s⁻¹ and the kon worked out at 250000 M⁻¹ s⁻¹.

Regarding B21, the Kd was 1.5 nM, the koff turned out to be 0.00042 s⁻¹ and the kon worked out at 290000 M⁻¹ s⁻¹.

The molecule B22 displayed a Kd of 2.8 nM, a koff of 0.00077 s⁻¹ and a kon of 280000 M⁻¹ s⁻¹.

In the case of B23, the Kd came to 1.4 nM, the off-rate constant (koff) was 0.00046 s⁻¹ and the kon turned out to be 320000 M⁻¹ s⁻¹.

Take B24: the Kd worked out at 11 nM, the koff turned out to be 0.0026 s⁻¹ and the kon came to 250000 M⁻¹ s⁻¹.

The molecule B25 yielded a Kd of 2.8 nM, an off-rate constant (koff) of 0.00084 s⁻¹ and a kon of 300000 M⁻¹ s⁻¹.

The target of another assay is T2, TROP2. Description: not stated; bivalent format.
B1 gave a Kd of 2 nM, a koff of 0.00048 s⁻¹ and a kon of 240000 M⁻¹ s⁻¹.

As to B2, the Kd worked out at 0.62 nM, the koff turned out to be 0.00017 s⁻¹ and the kon was 270000 M⁻¹ s⁻¹.

As to B3, the Kd was found to be 6.7 nM, the koff was found to be 0.0011 s⁻¹ and the association rate constant (kon) amounted to 180000 M⁻¹ s⁻¹.

In turn, B4 gave a Kd of 3.4 nM, a dissociation rate constant (koff) of 0.00081 s⁻¹ and a kon of 240000 M⁻¹ s⁻¹.

In turn, B5 came in with a Kd of 1.1 nM, a koff of 0.00035 s⁻¹ and a kon of 320000 M⁻¹ s⁻¹.

B6 returned a Kd of 0.66 nM, an off-rate constant (koff) of 0.0002 s⁻¹ and a kon of 320000 M⁻¹ s⁻¹.

The molecule B7 yielded a Kd of 2 nM, a koff of 0.00047 s⁻¹ and a kon of 250000 M⁻¹ s⁻¹.

For the molecule B8, the Kd came to 0.93 nM, the koff is 0.00028 s⁻¹ and the kon was 330000 M⁻¹ s⁻¹.

With B9, the Kd was determined as 7.2 nM, the dissociation rate constant (koff) came out at 0.0012 s⁻¹ and the kon came out at 170000 M⁻¹ s⁻¹.

B10 gave a Kd of 0.55 nM, a koff of 0.00021 s⁻¹ and an on-rate (kon) of 380000 M⁻¹ s⁻¹.

The molecule B11 registered a Kd of 6 nM, an off-rate (koff) of 0.0012 s⁻¹ and a kon of 200000 M⁻¹ s⁻¹.

The molecule B12 yielded a Kd of 2.7 nM, a koff of 0.0006 s⁻¹ and a kon of 230000 M⁻¹ s⁻¹.

Molecule B13 registered a Kd of 8.5 nM, a koff of 0.0014 s⁻¹ and a kon of 170000 M⁻¹ s⁻¹.

B14: the Kd stood at 4.1 nM, the dissociation rate constant (koff) came out at 0.00091 s⁻¹ and the on-rate (kon) is 230000 M⁻¹ s⁻¹.

The molecule B15 displayed a Kd of 1.5 nM, a koff of 0.00051 s⁻¹ and a kon of 340000 M⁻¹ s⁻¹.

Turning to B16, the Kd amounted to 1.3 nM, the koff is 0.00033 s⁻¹ and the on-rate constant (kon) stood at 270000 M⁻¹ s⁻¹.

Turning to B17, the Kd is 2.6 nM, the koff turned out to be 0.00077 s⁻¹ and the kon is 290000 M⁻¹ s⁻¹.

Regarding B18, the Kd came out at 1.1 nM, the koff was found to be 0.00029 s⁻¹ and the kon amounted to 270000 M⁻¹ s⁻¹.

As to B19, the Kd is 1.5 nM, the koff is 0.00032 s⁻¹ and the kon is 210000 M⁻¹ s⁻¹.

B20 returned a Kd of 4.6 nM, a koff of 0.00088 s⁻¹ and a kon of 190000 M⁻¹ s⁻¹.

In the case of B21, the Kd worked out at 0.77 nM, the koff came to 0.00025 s⁻¹ and the kon was 320000 M⁻¹ s⁻¹.

Turning to B22, the Kd worked out at 1.9 nM, the koff turned out to be 0.00053 s⁻¹ and the kon turned out to be 280000 M⁻¹ s⁻¹.

With B23, the Kd turned out to be 1.7 nM, the koff was 0.0004 s⁻¹ and the kon was determined as 240000 M⁻¹ s⁻¹.

Consider B24, for which the Kd worked out at 5.7 nM, the koff was found to be 0.0013 s⁻¹ and the kon worked out at 240000 M⁻¹ s⁻¹.

Turning to B25, the Kd came out at 1.7 nM, the koff is 0.00051 s⁻¹ and the kon worked out at 330000 M⁻¹ s⁻¹.
